According to patent US5914109:
pKd: −log10 of the molar value.

Tests used:
[1] = target: gp120 of HIVMN (HIV-1 strain MN) (UniProt P05877)
[2] = target: 20-mer V3 peptide of HIVMN (American Bio-Technologies) (HIV-1 strain MN); assay: Friguet ELISA method, V3 MN peptide
[3] = target: 20-mer V3 peptide of HIVMN (American Bio-Technologies) (HIV-1 strain MN); assay: competition ELISA in solution at equilibrium (Friguet method)
[4] = target: gp120 of HTLV-IIIB (HIV-1 isolate IIIB)
[5] = target: gp120 of HIVMN (HIV-1 strain MN) (UniProt P05877); remark: listed apart in the source
[6] = target: gp120 of HTLV-IIIB (HIV-1 isolate IIIB); remark: listed apart in the source
[7] = target: recombinant gp120IIIB (baculovirus, Repligen) (HIV-1 isolate IIIB) (UniProt P04578); assay: Friguet method; reference: V3IIIB peptide
[8] = target: recombinant gp120 protein of HIVSF2 (produced in CHO cells) (HIV-1 isolate SF-2) (UniProt P03378); assay: Friguet method; reference: V3SF-2 peptide
[9] = target: 20-mer V3 peptide of HIVSF2 (HIV-1 isolate SF-2); assay: ELISA on V3 peptide coated plates, mAb at 10 µg/ml
[10] = target: 22-mer V3 peptide of HXB2 (HIV-1 HXB2 (IIIB)); assay: ELISA on V3 peptide coated plates, mAb at 10 µg/ml
[11] = target: 23-mer peptide of the gp120 V3 loop of the MN strain of HIV-1 (HIV-1 strain MN); assay: ELISA on V3 peptide coated plates, mAb at 10 µg/ml
[12] = target: V3-CDC4 peptide (HIV-1 isolate CDC4); assay: ELISA on V3 peptide coated plates, mAb at 10 µg/ml
[13] = target: V3-NY5 peptide (HIV-1 isolate NY5); assay: ELISA on V3 peptide coated plates, mAb at 10 µg/ml
[14] = target: V3-RF peptide (HIV-1 isolate RF); assay: ELISA on V3 peptide coated plates, mAb at 10 µg/ml
[15] = target: V3-SC peptide (HIV-1 isolate SC); assay: ELISA on V3 peptide coated plates, mAb at 10 µg/ml
[16] = target: V3-WM52 peptide (HIV-1 isolate WM52); assay: ELISA on V3 peptide coated plates, mAb at 10 µg/ml
[17] = target: 20-mer V3 peptide of HIVSF2 (HIV-1 isolate SF-2); assay: competition ELISA in solution at equilibrium (Friguet method)
[18] = target: 22-mer V3 peptide of HXB2 (HIV-1 HXB2 (IIIB)); assay: as above
[19] = target: recombinant gp120 protein of HIVSF2 (produced in CHO cells) (HIV-1 isolate SF-2) (UniProt P03378); assay: Friguet method, ligand in solution at equilibrium; rgp120 SF-2
[20] = target: 20-mer V3 peptide of HIVMN (American Bio-Technologies) (HIV-1 strain MN); assay: Friguet method, ligand in solution at equilibrium; V3 peptide of MN
[21] = target: 22-mer V3 peptide of HXB2 (HIV-1 HXB2 (IIIB)); assay: Friguet method, ligand in solution at equilibrium; V3 peptide of HXB2
[22] = target: 20-mer V3 peptide of HIVSF2 (HIV-1 isolate SF-2); assay: Friguet method, ligand in solution at equilibrium; V3 peptide of SF-2
[23] = target: recombinant gp120IIIB (baculovirus, Repligen) (HIV-1 isolate IIIB) (UniProt P04578); assay: Friguet method, ligand in solution at equilibrium; rgp120 IIIB (row HXB2)
[24] = target: 22-mer V3 peptide of HXB2 (HIV-1 HXB2 (IIIB)); assay: competition ELISA in solution (Friguet method); mAb after the fourth cloning
[25] = target: 22-mer V3 peptide of HXB2 (HIV-1 HXB2 (IIIB)); assay: competition ELISA in solution (Friguet method); mAb after the second cloning
[26] = target: gp120 of HIV-1 isolate AL-1 (HIV-1 isolate AL-1)
[27] = target: gp120 of HIV-1 isolate RF (HIV-1 isolate RF) (UniProt P04579)
[28] = target: gp120 of HIV-1 isolate SF-2 (virus) (HIV-1 isolate SF-2) (UniProt P03378)
[29] = target: gp120 of HIV-1 isolate WMJ-2 (HIV-1 isolate WMJ-2)
[30] = target: gp120 of HIVMN (HIV-1 strain MN) (UniProt P05877); remark: listed apart in the source
[31] = target: gp120 of HTLV-IIIB (HIV-1 isolate IIIB); remark: listed apart in the source
[32] = target: 20-mer V3 peptide of HIVSF2 (HIV-1 isolate SF-2); assay: competition ELISA in solution (Friguet method); reference: the MN peptide

| Substance | 50% neutralization, CEM-SS syncytium-forming assay, IgG concentration [1] | 90% neutralization, CEM-SS syncytium-forming assay, IgG concentration [1] | pKd [2] | pKd [3] | minimum antigen concentration giving positive results (µg/ml of V3 peptide used to coat) [9] | minimum antigen concentration giving positive results (µg/ml of V3 peptide used to coat) [11] | minimum antigen concentration giving positive results (µg/ml of V3 peptide used to coat) [12] | minimum antigen concentration giving positive results (µg/ml of V3 peptide used to coat) [13] | minimum antigen concentration giving positive results (µg/ml of V3 peptide used to coat) [15] | minimum antigen concentration giving positive results (µg/ml of V3 peptide used to coat) [16] | pKd [17] | pKd [18] | other results |
| --- | --- | --- | --- | --- | --- | --- | --- | --- | --- | --- | --- | --- | --- |
| human mAb 412-D (antibody) | 4.69 µg/mL | > 10 µg/mL | 5.04 | 5.04 |  |  |  |  |  |  |  |  |  |
| human mAb 447-D (antibody) | 0.05 µg/mL | 0.92 µg/mL | 6.25 | 6.25 | 0.01 | 0.01 | 0.1 | 0.1 | 0.01 | 0.2 | 6.05 | 4.62 | 50% neutralization, CEM-SS syncytium-forming assay, IgG concentration [4]: 1.8 µg/mL; 90% neutralization, CEM-SS syncytium-forming assay, IgG concentration [4]: > 10 µg/mL; neutralization dose 50%, according to Nara et al. [5]: 0.052 µg/mL; neutralization dose 90%, according to Nara et al. [5]: 0.9 µg/mL; neutralization dose 50%, according to Nara et al. [6]: 1.8 µg/mL; percent neutralization at the maximum concentration of 10 µg/ml [6]: 71%; fold stronger binding than to the V3IIIB peptide [7]: 6 fold; fold stronger binding than to the V3SF-2 peptide [8]: 90 fold; minimum antigen concentration giving positive results (µg/ml of V3 peptide used to coat) [10]: 0.2; minimum antigen concentration giving positive results (µg/ml of V3 peptide used to coat) [14]: 0.4; pKd [19]: 8.00; pKd [20]: 6.25; pKd [21]: 4.62; pKd [22]: 6.05; pKd [23]: 5.41; pKd [24]: 4.80; pKd [25]: 4.19 |
| human mAb 537-D (antibody) | 2.69 µg/mL | > 10 µg/mL | 5.89 | 5.89 | 1 | 0.6 | 1 | 0.8 | 1 | 2 | 5.07 | < 4.00 | neutralization endpoint, MT-4 cell killing assay [26]: 3.13 µg/mL; neutralization endpoint, MT-4 cell killing assay [27]: > 50 µg/mL; neutralization endpoint, MT-4 cell killing assay [28]: > 5 µg/mL; neutralization endpoint, MT-4 cell killing assay [29]: > 50 µg/mL; neutralization endpoint, MT-4 cell killing assay [30]: 6.25 µg/mL; neutralization endpoint, MT-4 cell killing assay [31]: > 50 µg/mL; fold difference of Kd between the two V3 peptides (MN and SF-2) [32]: 7 fold |
